Changes are numbered by the printed parent chain. Names may count otherwise.
B1: wild type STAT1 N-domain (human STAT1 amino acid residues 1 to 124) (other, UniProt P42224 1-124, looked up)
chain: MSQWYELQQLDSKFLEQVHQLYDDSFPMEIRQYLAQWLEKQDWEHAANDVSFATIRFHDLLSQLDDQYSRFSLENNFLLQHNIRKSKRNLQDNFQEDPIQMSMIIYSCLKEERKILENAQRFNQ
notes: range 1-124; Expressed in E. coli as a GST fusion and released with TEV protease; also called N-domain of human STAT1
B2: STAT1 N-domain (E29A) (other, human, UniProt P42224 1-124, looked up)
chain: B1 chain with E29A
notes: range 1-124; Interface II mutant; GST fusion cleaved with TEV protease
B3: STAT1 N-domain (M28A) (other, human, UniProt P42224 1-124, looked up)
chain: B1 chain with M28A
notes: as for B2
B4: STAT1 N-domain (W37F) (other, human, UniProt P42224 1-124, looked up)
chain: B1 chain with W37F
notes: range 1-124; Interface I mutant; GST fusion cleaved with TEV protease; also called N-domain of STAT1 (W37F)
B5: STAT1 N-domain (Q8A) (other, human, UniProt P42224 1-124, looked up)
chain: B1 chain with Q8A
notes: as for B2
B6: STAT1 N-domain (F77A) (other, human, UniProt P42224 1-124, looked up)
chain: B1 chain with F77A
notes: range 1-124; Interface II mutant; GST fusion cleaved with TEV protease; Its CD spectrum was identical to wild type; also called STAT1 F77A
B7: STAT1 N-domain (L15A) (other, human, UniProt P42224 1-124, looked up)
chain: B1 chain with L15A
notes: as for B2
B8: STAT1 N-domain (Q36A) (other, human, UniProt P42224 1-124, looked up)
chain: B1 chain with Q36A
notes: range 1-124; Interface I mutant; GST fusion cleaved with TEV protease
B9: STAT1 N-domain (Q41A) (other, human, UniProt P42224 1-124, looked up)
chain: B1 chain with Q41A
notes: as for B8
B10: STAT1 N-domain (L78A) (other, human, UniProt P42224 1-124, looked up)
chain: B1 chain with L78A
notes: range 1-124; Interface II mutant; GST fusion cleaved with TEV protease; Its CD spectrum was identical to wild type; also called STAT1 L78A
B11: STAT1 N-domain (R70A) (other, human, UniProt P42224 1-124, looked up)
chain: B1 chain with R70A
notes: as for B8

Key:
[1] = biological target: STAT1 N-domain (S12A) (human) (UniProt P42224); test: analytical ultracentrifugation, sedimentation equilibrium; self-association
[2] = biological target: the molecule itself; test: analytical ultracentrifugation, sedimentation equilibrium; self-association (monomer 15,223 Da)
Method: (§1) As described below, point mutations in STAT1 were introduced at several sites at each of Interface I and II. The point mutation introduced in each of the STAT1 N-domain mutant proteins is indicated in the first column. The approximate molecular weight estimated by sedimentation equilibrium experiments, and migration as a monomer or dimer species on gel filtration analysis, is shown for each mutant protein.
(§2) For gel filtration analysis, 1.5 mg of purified STAT N domain protein in a volume of 500 μl was run on a 120 ml Superdex 75 column at a flow rate of 0.5 ml/min, in 50 mM Tris, pH 8.0, 100 mM NaCl and 1 mM DTT. Equilibrium sedimentation experiments were performed using a Beckman Optima XL-A analytical ultracentrifuge with an An-60 Ti rotor and six-sector cells. STAT N-domain proteins at concentrations of 0.65, 0.32 and 0.16 mg/ml were centrifuged in the gel filtration buffer, at 25,000 rev/min. at 4° C. for 20 h. Subsequently, absorbance measurements at 280 nm were taken in 0.001 cm radial steps and equilibrium was ascertained by comparing scans taken at 1 h intervals. The Optima XL-A/XL-I data analysis software from Beckman Coulter was used for data processing and curve fitting. A partial specific volume of 0.73 cm³/g was used and background absorbance was corrected empirically by allowing the baseline to float during the fitting calculations.

[3] = biological target: the molecule itself; test: analytical ultracentrifugation, sedimentation equilibrium; self-association
Method: as §1, §2

[4] = biological target: the molecule itself; test: gel filtration on Superdex 75 (self-association)
Method: as §2

[5] = biological target: the molecule itself; test: analytical ultracentrifugation, sedimentation equilibrium (self-association)
From the text: Not only is Interface II more extensive than Interface I, it also involves interactions between hydrophobic residues (unlike the essentially polar nature of Interface I). Certain residues at interface II were individually replaced by Ala (Table 1) and the mutant STAT N-domains were examined for dimerization. […] The results for mutations at the other side of the interface provide evidence for interference with dimer formation. M28A migrated as an intermediate between dimer and monomer on gel filtration analysis, but appeared as a dimer by analytical ultracentrifugation analysis. […] The hydrophobic nature of the residues at positions 77 and 78 is conserved between STAT1 and STAT4, which has leucine residues at both positions. Likewise, Met 28 is conserved in STAT4.
For gel filtration analysis, 1.5 mg of purified STAT N domain protein in a volume of 500 μl was run on a 120 ml Superdex 75 column at a flow rate of 0.5 ml/min, in 50 mM Tris, pH 8.0, 100 mM NaCl and 1 mM DTT. […] Subsequently, absorbance measurements at 280 nm were taken in 0.001 cm radial steps and equilibrium was ascertained by comparing scans taken at 1 h intervals. […] A partial specific volume of 0.73 cm³/g was used and background absorbance was corrected empirically by allowing the baseline to float during the fitting calculations.

| Molecule | molecular weight by sedimentation equilibrium [3] [kDa] | other results |
| --- | --- | --- |
| STAT1 N-domain (S12A) (from UniProt P42224 1-124) |  | molecular weight by sedimentation equilibrium [1]: 17 kDa |
| B1 |  | molecular weight by sedimentation equilibrium [2]: ~28 kDa |
| B2 | ~27 |  |
| B3 | ~26 |  |
| B4 | ~28 |  |
| B5 | ~27 |  |
| B6 |  | binding result [4]: no binding (tested: 1.5 mg in 500 µl); molecular weight by sedimentation equilibrium [2]: ~15 kDa |
| B7 | ~28 |  |
| B8 | ~29 |  |
| B9 | ~27 |  |
| B10 |  | binding result [5]: no binding (tested: 0.65, 0.32 and 0.16 mg/ml); molecular weight by sedimentation equilibrium [2]: ~15 kDa |
| B11 | ~27 |  |

— patent US20040009571A1 (published 2004)
